Measurements as given in the supplement of paper PMC5998384.

Assays:
HeLa Kyoto [1] = experiment: solubility in G1/S (NP-40 vs SDS abundance) (log2 ratio); higher = more soluble; conditions: cell cycle stage: G1/S
HeLa Kyoto [2] = experiment: melting temperature (median over replicates), in situ; higher = more thermally stable
HeLa Kyoto [3] = experiment: solubility change mitosis vs G1/S (difference of NP-40 vs SDS log2 ratios) (log2 ratio difference); higher = more soluble in mitosis
HeLa Kyoto [4] = experiment: thermal stability score vs G1/S (z-score of summed log2 fold changes over temperatures); higher = more thermally stable than in G1/S
[5] = cell cycle stage: early G1 (4.5 h after nocodazole release)
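Wherever melting temperature (median over replicates), in situ is given: HeLa Kyoto cells synchronized by double thymidine or nocodazole block, proteins quantified by TMT10plex mass spectrometry, three independent biological replicates.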
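Wherever solubility change mitosis vs G1/S (difference of NP-40 vs SDS log2 ratios) is given: synchronized HeLa Kyoto cells (double thymidine block for G1/S, nocodazole release for mitosis), protein amounts in NP-40 versus SDS lysates quantified by mass spectrometry, three biological replicates.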
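Wherever solubility in G1/S (NP-40 vs SDS abundance) is given: HeLa Kyoto cells arrested at G1/S by double thymidine block, proteins quantified by TMT10plex mass spectrometry in mild NP-40 versus SDS extracts, three biological replicates.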
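Wherever thermal stability score vs G1/S (z-score of summed log2 fold changes over temperatures) is given: synchronized HeLa Kyoto cells, proteins quantified by TMT10plex mass spectrometry, three biological replicates, mitosis taken 0.5 h after nocodazole release, G1/S directly after double thymidine block.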

Sequence	solubility in G1/S (log2) (HeLa Kyoto [1])	melting temperature (HeLa Kyoto [2]; cell cycle stage: mitosis) [°C]	solubility change mitosis (log2) (HeLa Kyoto [3])	thermal stability score (HeLa Kyoto [4]; [5])	thermal stability score (HeLa Kyoto [4]; cell cycle stage: mitosis)	melting temperature (HeLa Kyoto [2]; cell cycle stage: G1/S) [°C]
MAAAAARWNHVWVGTETGILKGVNLQRKQAANFTAGGQPRREEAVSALCWGTGGETQMLVGCADRTVKHFSTEDGIFQGQRHCPGGEGMFRGLAQADGTLITCVDSGILRVWHDKDKDTSSDPLLELRVGPGVCRMRQDPAHPHVVATGGKENALKIWDLQGSEEPVFRAKNVRNDWLDLRVPIWDQDIQFLPGSQKLVTCTGYHQVRVYDPASPQRRPVLETTYGEYPLTAMTLTPGGNSVIVGNTHGQLAEIDLRQGRLLGCLKGLAGSVRGLQCHPSKPLLASCGLDRVLRIHRIQNPRGLEHKVYLKSQLNCLLLSGRDNWEDEPQEPQEPNKVPLEDTETDELWASLEAAAKRKLSGLEQPQGALQTRRRKKKRPGSTSP [WDR74]	-0.848	52	0.631	-0.813	-1.48	
MAAAAASAPQQLSDEELFSQLRRYGLSPGPVTESTRPVYLKKLKKLREEEQQQHRSGGRGNKTRNSNNNNTAAATVAAAGPAAAAAAGMGVRPVSGDLSYLRTPGGLCRISASGPESLLGGPGGASAAPAAGSKVLLGFSSDESDVEASPRDQAGGGGRKDRASLQYRGLKAPPAPLAASEVTNSNSAERRKPHSWWGARRPAGPELQTPPGKDGAVEDEEGEGEDGEERDPETEEPLWASRTVNGSRLVPYSCRENYSDSEEEDDDDVASSRQVLKDDSLSRHRPRRTHSKPLPPLTAKSAGGRLETSVQGGGGLAMNDRAAAAGSLDRSRNLEEAAAAEQGGGCDQVDSSPVPRYRVNAKKLTPLLPPPLTDMDSTLDSSTGSLLKTNNHIGGGAFSVDSPRIYSNSLPPSAAVAASSSLRINHANHTGSNHTYLKNTYNKPKLSEPEEELLQQFKREEVSPTGSFSAHYLSMFLLTAACLFFLILGLTYLGMRGTGVSEDGELSIENPFGETFGKIQESEKTLMMNTLYKLHDRLAQLAGDHECGSSSQRTLSVQEAAAYLKDLGPEYEGIFNTSLQWILENGKDVGIRCVGFGPEEELTNITDVQFLQSTRPLMSFWCRFRRAFVTVTHRLLLLCLGVVMVCVVLRYMKYRWTKEEEETRQMYDMVVKIIDVLRSHNEACQENKDLQPYMPIPHVRDSLIQPHDRKKMKKVWDRAVDFLAANESRVRTETRRIGGADFLVWRWIQPSASCDKILVIPSKVWQGQAFHLDRRNSPPNSLTPCLKIRNMFDPVMEIGDQWHLAIQEAILEKCSDNDGIVHIAVDKNSREGCVYVKCLSPEYAGKAFKALHGSWFDGKLVTVKYLRLDRYHHRFPQALTSNTPLKPSNKHMNSMSHLRLRTGLTNSQGSS [LEMD3]	0.0762	50.5	-0.0382	2.33	3.33	49.1
MAAAAGMLLLGLLQAGGSVLGQAMEKVTGGNLLSMLLIACAFTLSLVYLIRLAAGHLVQLPAGVKSPPYIFSPIPFLGHAIAFGKSPIEFLENAYEKYGPVFSFTMVGKTFTYLLGSDAAALLFNSKNEDLNAEDVYSRLTTPVFGKGVAYDVPNPVFLEQKKMLKSGLNIAHFKQHVSIIEKETKEYFESWGESGEKNVFEALSELIILTASHCLHGKEIRSQLNEKVAQLYADLDGGFSHAAWLLPGWLPLPSFRRRDRAHREIKDIFYKAIQKRRQSQEKIDDILQTLLDATYKDGRPLTDDEVAGMLIGLLLAGQHTSSTTSAWMGFFLARDKTLQKKCYLEQKTVCGENLPPLTYDQLKDLNLLDRCIKETLRLRPPIMIMMRMARTPQTVAGYTIPPGHQVCVSPTVNQRLKDSWVERLDFNPDRYLQDNPASGEKFAYVPFGAGRHRCIGENFAYVQIKTIWSTMLRLYEFDLIDGYFPTVNYTTMIHTPENPVIRYKRRSK [CYP51A1]	-0.38	50	0.0784	2.55	3.17	48.4
MAAAAVAAAAAAAAAASLQVLEMESMETAAAGSAGLAAEVRGSGTVDFGPGPGISAMEASGGDPGPEAEDFECSSHCSELSWRQNEQRRQGLFCDITLCFGGAGGREFRAHRSVLAAATEYFTPLLSGQFSESRSGRVEMRKWSSEPGPEPDTVEAVIEYMYTGRIRVSTGSVHEVLELADRFLLIRLKEFCGEFLKKKLHLSNCVAIHSLAHMYTLSQLALKAADMIRRNFHKVIQDEEFYTLPFHLIRDWLSDLEITVDSEEVLFETVLKWVQRNAEERERYFEELFKLLRLSQMKPTYLTRHVKPERLVANNEVCVKLVADAVERHALRAENIQSGTCQHPTSHVSLLPRYGQNMDVIMVIGGVSEGGDYLSECVGYFVDEDRWVNLPHIHNHLDGHAVAVTESYVYVAGSMEPGFAKTVERYNPNLNTWEHVCSLMTRKHSFGLTEVKGKLYSIGGHGNFSPGFKDVTVYNPELDKWHNLESAPKILRDVKALAIEDRFVYIAARTPVDRDTEDGLKAVITCYDTETRQWQDVESLPLIDNYCFFQMSVVNSNFYQTASCCPKSYCLENEEAVRKIASQVSDEILESLPPEVLSIEGAAICYYKDDVFIIGGWKNSDDIDKQYRKEAYRYCAERKRWMLLPPMPQPRCRATACHVRIPYRYLHGTQRYPMPQNLMWQKDRIRQMQEIHRHALNMRRVPSSQIEC [KLHL11]	-0.226	50.7	-0.089	0.384	0.29	51.8
MAAAEPSPRRVGFVGAGRMAGAIAQGLIRAGKVEAQHILASAPTDRNLCHFQALGCRTTHSNQEVLQSCLLVIFATKPHVLPAVLAEVAPVVTTEHILVSVAAGVSLSTLEELLPPNTRVLRVLPNLPCVVQEGAIVMARGRHVGSSETKLLQHLLEACGRCEEVPEAYVDIHTGLSGSGVAFVCAFSEALAEGAVKMGMPSSLAHRIAAQTLLGTAKMLLHEGQHPAQLRSDVCTPGGTTIYGLHALEQGGLRAATMSAVEAATCRAKELSRK [PYCRL]	0.155	55.3	0.0528	-1.28	-1.85	53.5
MAAAGAAATHLEVARGKRAALFFAAVAIVLGLPLWWKTTETYRASLPYSQISGLNALQLRLMVPVTVVFTRESVPLDDQEKLPFTVVHEREIPLKYKMKIKCRFQKAYRRALDHEEEALSSGSVQEAEAMLDEPQEQAEGSLTVYVISEHSSLLPQDMMSYIGPKRTAVVRGIMHREAFNIIGRRIVQVAQAMSLTEDVLAAALADHLPEDKWSAEKRRPLKSSLGYEITFSLLNPDPKSHDVYWDIEGAVRRYVQPFLNALGAAGNFSVDSQILYYAMLGVNPRFDSASSSYYLDMHSLPHVINPVESRLGSSAASLYPVLNFLLYVPELAHSPLYIQDKDGAPVATNAFHSPRWGGIMVYNVDSKTYNASVLPVRVEVDMVRVMEVFLAQLRLLFGIAQPQLPPKCLLSGPTSEGLMTWELDRLLWARSVENLATATTTLTSLAQLLGKISNIVIKDDVASEVYKAVAAVQKSAEELASGHLASAFVASQEAVTSSELAFFDPSLLHLLYFPDDQKFAIYIPLFLPMAVPILLSLVKIFLETRKSWRKPEKTD [PIGS]	0.0826	53.1	-0.13	2.4	4.4	52.6
MAAAKVALTKRADPAELRTIFLKYASIEKNGEFFMSPNDFVTRYLNIFGESQPNPKTVELLSGVVDQTKDGLISFQEFVAFESVLCAPDALFMVAFQLFDKAGKGEVTFEDVKQVFGQTTIHQHIPFNWDSEFVQLHFGKERKRHLTYAEFTQFLLEIQLEHAKQAFVQRDNARTGRVTAIDFRDIMVTIRPHVLTPFVEECLVAAAGGTTSHQVSFSYFNGFNSLLNNMELIRKIYSTLAGTRKDVEVTKEEFVLAAQKFGQVTPMEVDILFQLADLYEPRGRMTLADIERIAPLEEGTLPFNLAEAQRQKASGDSARPVLLQVAESAYRFGLGSVAGAVGATAVYPIDLVKTRMQNQRSTGSFVGELMYKNSFDCFKKVLRYEGFFGLYRGLLPQLLGVAPEKAIKLTVNDFVRDKFMHKDGSVPLAAEILAGGCAGGSQVIFTNPLEIVKIRLQVAGEITTGPRVSALSVVRDLGFFGIYKGAKACFLRDIPFSAIYFPCYAHVKASFANEDGQVSPGSLLLAGAIAGMPAASLVTPADVIKTRLQVAARAGQTTYSGVIDCFRKILREEGPKALWKGAGARVFRSSPQFGVTLLTYELLQRWFYIDFGGVKPMGSEPVPKSRINLPAPNPDHVGGYKLAVATFAGIENKFGLYLPLFKPSVSTSKAIGGGP [SLC25A13]	0.0358	55.3	-0.142	-1.62	-1.29	55.3
MAAALGASGGAGAGDDDFDQFDKPGAERSWRRRAADEDWDSELEDDLLGEDLLSGKKNQSDLSDEELNDDLLQSDNEDEENFSSQGVTISLNATSGMVTSFELSDNTNDQSGEQESEYEQEQGEDELVYHKSDGSELYTQEYPEEGQYEGHEAELTEDQIEYVEEPEEEQLYTDEVLDIEINEPLDEFTGGMETLELQKDIKEESDEEEEDDEESGRLRFKTERKEGTIIRLSDVTRERRNIPETLELSAEAKAALLEFEERERQHKQGRYSSRRGGRRGGPLMCRGVGDQRRESTERGRMKDHRPALLPTQPPVVPQAPPPPPPPPQQQPIRSLFQPQPLQPLLPVQHPHHPSPPQGMHMPPQLETPRMMMTPPPVTPQQPKNIHINPHFKGTVVTPVQVPLLPVPSQPRPAVGPQRFPGPPEFPQHTPGPVPNSFSQPPRLPLQDQWRAPPPPQDRDPFFLGVSGEPRFPSHLFLEQRSPPPPPPPPTLLNSSHPVPTQSPLPFTQPGPAFNQQGQQPVFPRERPVRPALQPPGPVGILHFSQPGSATTRPFIPPRQPFLPGPGQPFLPTHTQPNLQGPLHPPLPPPHQPQPQQPQQQPPPQHQPPHQPPHQPPPQHQPPPQHPPQHPPQHQHHHHHHHLSVPPPPLMPMSQPQFRPHVQTAQPQASSSRMQCPQRQGLRHNTTSQNVSKRPMQQMQPTAPRNSNLRELPIAPSHVIEMSSSRCSATPSAQVKPIVSASPPSRAVAGSRSSQGKTEVKVKPASPVAQPKEEAKTETEFPDEDEETRLYRLKIEEQKRLREEILKQKELRRQQQAGARKKELLERLAQQQQQLYAPPPPAEQEEQALSPSPTNGNPLLPFPGAQVRQNVKNRLLVKNQDVSISNVQPKTSNFVPSSANMQYQGQQMKALKHLRQTRTVPQSQTQPLHKVLPIKPADVEEPAVPQTPRVASIQGRPQDTKPGVKRTVTHRTNSGGGDGPHISSKVRVIKLSGGGGESDGFFHPEGQPQRLPQPPEVGPQPARKVTLTRGGLQQPPHLPAGPHAHSPVPPGIKSIQGIHPAKKAIMHGRGRGVAGPMGRGRLMPNKQNLRVVECKPQPCVVSVEGLSSSTTDAQLKSLLMSVGPIQSLQMLPQQRKAIAKFKEPAHALAFQQKFHRHMIDLSHINVALIVE [RBM33]	-0.022	50.8	-0.145	0.706	2.36	48.8
MAAAMPLALLVLLLLGPGGWCLAEPPRDSLREELVITPLPSGDVAATFQFRTRWDSELQREGVSHYRLFPKALGQLISKYSLRELHLSFTQGFWRTRYWGPPFLQAPSGAELWVWFQDTVTDVDKSWKELSNVLSGIFCASLNFIDSTNTVTPTASFKPLGLANDTDHYFLRYAVLPREVVCTENLTPWKKLLPCSSKAGLSVLLKADRLFHTSYHSQAVHIRPVCRNARCTSISWELRQTLSVVFDAFITGQGKKDWSLFRMFSRTLTEPCPLASESRVYVDITTYNQDNETLEVHPPPTTTYQDVILGTRKTYAIYDLLDTAMINNSRNLNIQLKWKRPPENEAPPVPFLHAQRYVSGYGLQKGELSTLLYNTHPYRAFPVLLLDTVPWYLRLYVHTLTITSKGKENKPSYIHYQPAQDRLQPHLLEMLIQLPANSVTKVSIQFERALLKWTEYTPDPNHGFYVSPSVLSALVPSMVAAKPVDWEESPLFNSLFPVSDGSNYFVRLYTEPLLVNLPTPDFSMPYNVICLTCTVVAVCYGSFYNLLTRTFHIEEPRTGGLAKRLANLIRRARGVPPL [PIGT]	0.0123	52.5	-0.141	1.75	1.86	53.8
